Residue numbers refer to the chain shown, from its start. Where two headings read alike, the source gives them in different places.
T1: recombinant human CTLA4-Fc (Sino Biological, 11159-H03H) (human, UniProt P16410 36-162)
T1 construct: bought; also called human CTLA4 fused with human FC fragment
T1 sequence (looked up): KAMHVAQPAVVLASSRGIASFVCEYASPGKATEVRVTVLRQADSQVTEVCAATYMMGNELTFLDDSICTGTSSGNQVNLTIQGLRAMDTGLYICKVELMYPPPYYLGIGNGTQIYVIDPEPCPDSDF

B1: TY22401 (antibody, V domains shown)
VH: EVQLVESGGGLVQPGGSLRLSCAASGYSISSGYHWSWIRQAPGKGLEWLARIDWDDDKYYSTSLKSRLTISRDNSKNTLYLQLNSLRAEDTAVYYCARSYVYFDYWGQGTLVTVSS
VL: EVGSYNFVADSCPDHPYPCSASGRSAGGGGSPLGLAGSGGSDIQLTQSPSSLSASVGDRVTITCRASQSVRGRFLAWYQQKPGKAPKLLIYDASNRATGIPSRFSGSGSGTDFTLTISSLQPEDFATYYCQQSSSWPPTFGQGTKVEIKR
notes: peptide fused to the N-terminus of the light chain; also called B13189 (peptide name)
B2: TY22566 (antibody, IgG1, V domains shown)
VH: B1 VH
VL: EVGSYPNPASDCVPYYYACAYSGRSAGGGGSPLGLAGSGGSDIQLTQSPSSLSASVGDRVTITCRASQSVRGRFLAWYQQKPGKAPKLLIYDASNRATGIPSRFSGSGSGTDFTLTISSLQPEDFATYYCQQSSSWPPTFGQGTKVEIKR
B3: TY22775 (antibody, V domains shown)
VH: B1 VH
VL: EVGHSDCDAFYPYCDSSGRSAGGGGTPLGLAGSGGSDIQLTQSPSSLSASVGDRVTITCRASQSVRGRFLAWYQQKPGKAPKLLIYDASNRATGIPSRFSGSGSGTDFTLTISSLQPEDFATYYCQQSSSWPPTFGQGTKVEIKR
B4: TY22565 (antibody, IgG1, V domains shown)
VH: B1 VH
VL: B2 VL with N7Q, A9S
B5: TY22563 (antibody, IgG1, V domains shown)
VH: B1 VH
VL: EVGSYYSAYPACDSHYPYCQSSGRSAGGGGSPLGLAGSGGSDIQLTQSPSSLSASVGDRVTITCRASQSVRGRFLAWYQQKPGKAPKLLIYDASNRATGIPSRFSGSGSGTDFTLTISSLQPEDFATYYCQQSSSWPPTFGQGTKVEIKR
B6: TY22776 (antibody, V domains shown)
VH: B1 VH
VL: B3 VL with H4S, D8V, A9P, F10Y, P12Y, Y13A, D15A, S16Y
B7: TY22402 (antibody, IgG1, V domains shown)
VH: B1 VH
VL: B5 VL with Y6I, S7V, A8H, Y9H, P10S, A11D, S14A, H15F, Q20D
notes: also called B13180 (peptide name)
B8: TY22404 (antibody, IgG1, V domains shown)
VH: B1 VH
VL: B2 VL with A9S
notes: also called B13197 (peptide name)
B9: TY22564 (antibody, IgG1, V domains shown)
VH: B1 VH
VL: B5 VL with Q20N, S22A
B10: B15736 (Fab, V domains shown)
VH: EVQLVESGGGLVQPGGSLRLSCAASGFTFSDYAIHWVRQAPGKGLEWIGIISPSGGSTKYAQKFQGRVTISRDNSKNTLYLQLNSLRAEDTAVYYCARLGYGYFDVWGQGTLVTVSS
VL: DIQLTQSPSSLSASVGDRVTITCRASQSVDFYGISFLHWYQQKPGKAPKLLIYDASSLESGVPSRFSGSGSGTDFTLTISSLQPEDFATYYCVQALQLPLTFGQGTKVEIKR
B11: B15700 (Fab, V domains shown)
VH: EVQLVESGGGLVQPGGSLRLSCAASGFTFSGYAIHWVRQAPGKGLEWIGIISPSGGGTKYAQKFQGRVTISRDNSKNTLYLQLNSLRAEDTAVYYCARHPFAYWGQGTLVTVSS
VL: DIQLTQSPSSLSASVGDRVTITCRASQSVDFYGISFLDWYQQKPGKAPKLLIYDASNRATGIPSRFSGSGSGTDFTLTISSLQPEDFATYYCQQYVSSPPEYTFGQGTKVEIKR
B12: B15709 (Fab, V domains shown)
VH: EVQLVESGGGLVQPGGSLRLSCAASGFTFSDYAIHWVRQAPGKGLEWIGIISPSSGSTNYAQKFQGRVTISRDNSKNTLYLQLNSLRAEDTAVYYCARDIHSGSSGYYYGFDVWGQGTLVTVSS
VL: B11 VL with Q27E, Y32F, D38A, Q94H, V96T, E101V

Legend:
[1] = target: T1, recombinant human CTLA4-Fc (Sino …); assay: ELISA, CTLA4-Fc coated, batch 2
Protocol: (§1) Plates were blocked with PBS supplemented with 3% non-fat milk at 37° C. for 1 hour. After washing, 100 μL, of 3-fold serial dilutions of antibodies were added to each well. After incubation at 37° C. for 1 hour, plates were washed four times, and 100 μL HRP conjugated anti-human IgG (Fab specific) (1:6000 dilution) was added to each well. Plates were incubated at 37° C. for 1 hour, washed four times, and then 50 μL TMB substrate solution was added to each well, and the plate was incubated at room temperature. […] The EC50 was evaluated by fitting the ELISA data using the asymmetrical sigmoidal (five-parameter logistic equation) model of GraphPad Prism 6 software.

[2] = target: T1, recombinant human CTLA4-Fc (Sino …); assay: ELISA, CTLA4-Fc coated, batch 1
Protocol: as §1

[3] = target: T1, recombinant human CTLA4-Fc (Sino …); assay: ELISA; EC50 over EC50 of TY21580
Protocol: as §1

[4] = target: T1, recombinant human CTLA4-Fc (Sino …); assay: ELISA; EC50 over EC50 of TY21580; remark: listed apart in the source
Protocol: as §1

[5] = target: T1, recombinant human CTLA4-Fc (Sino …); assay: ELISA; EC50 over EC50 of TY21580; remark: listed apart in the source
Protocol: Plates were incubated at 37° C. for 1 hour, washed four times, and then 50 μL TMB substrate solution was added to each well, and the plate was incubated at room temperature. […] The EC50 was evaluated by fitting the ELISA data using the asymmetrical sigmoidal (five-parameter logistic equation) model of GraphPad Prism 6 software.
The purified activatable antibodies were treated with the proteases which recognize the cleavage sequences, and were then tested to determine whether removal of the masking peptide restored their activity. […] The masking efficiency was then measured by ELISA as described above.

[6] = target: T1, recombinant human CTLA4-Fc (Sino …); assay: ELISA; EC50 over EC50 of TY21580; remark: listed apart in the source
Protocol: as §1

[7] = target: T1, recombinant human CTLA4-Fc (Sino …); assay: ELISA, Fab captured
[8] = target: mouse CTLA4 fused with human FC fragment (mouse, UniProt P09793 36-162, limits assumed); assay: ELISA, Fab captured

| Binder | LogEC50 [1] | Masking efficiency [3] [fold] | further results |
| --- | --- | --- | --- |
| B1 | -7.8 | – | LogEC50 [2]: -7.62 |
| B2 | -6.79 | 489 | – |
| B3 | – | 168 | – |
| B4 | -6.68 | – | – |
| B5 | -7.32 | 144 | – |
| B6 | – | 296 | – |
| B7 | -6.9 | 243 | Masking efficiency [4]: 554 fold; LogEC50 [2]: -6.32 |
| B8 | -6.89 | 308 | Masking efficiency [5]: 216 fold; Masking efficiency [4]: 572 fold; Masking efficiency [6]: 469 fold; LogEC50 [2]: -6.75 |
| B9 | -7.41 | – | – |
| B10 | – | – | binding result [7]: binds; binding result [8]: binds |
| B11 | – | – | binding result [7]: binds; binding result [8]: binds |
| B12 | – | – | binding result [7]: binds; binding result [8]: binds |

Source: US20240141046A1 (published 2024)
